Source: patent publication US10010560 (dated 2018)

Tests used:
HSP70 (ADP-bound) = HSP70 (ADP-bound) (human); assay: ITC, ADP
HSP70 (ATP-bound) = HSP70 (ATP-bound) (human); assay: ITC, ATP
Sequence of HSP70 (ATP-bound) (human) (chain, as listed by the source): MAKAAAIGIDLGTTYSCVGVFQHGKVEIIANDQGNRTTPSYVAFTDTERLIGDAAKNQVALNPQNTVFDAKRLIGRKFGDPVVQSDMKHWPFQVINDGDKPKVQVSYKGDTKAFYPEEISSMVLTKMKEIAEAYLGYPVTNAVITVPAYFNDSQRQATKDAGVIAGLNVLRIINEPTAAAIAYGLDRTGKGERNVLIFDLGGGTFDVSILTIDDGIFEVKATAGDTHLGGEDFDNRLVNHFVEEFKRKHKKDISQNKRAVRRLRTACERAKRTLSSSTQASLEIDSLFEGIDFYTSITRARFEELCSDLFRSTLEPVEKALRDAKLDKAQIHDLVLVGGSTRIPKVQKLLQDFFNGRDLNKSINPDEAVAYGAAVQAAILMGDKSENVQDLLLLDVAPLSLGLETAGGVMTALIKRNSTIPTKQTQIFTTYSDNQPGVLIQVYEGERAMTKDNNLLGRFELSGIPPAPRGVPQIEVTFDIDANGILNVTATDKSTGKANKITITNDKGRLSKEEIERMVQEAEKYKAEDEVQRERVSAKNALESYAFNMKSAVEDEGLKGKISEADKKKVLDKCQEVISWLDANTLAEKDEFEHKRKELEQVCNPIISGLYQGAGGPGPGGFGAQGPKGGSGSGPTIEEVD

Sequence of HSP70 (ADP-bound) (human) (chain, as listed by the source): as above

Kd (HSP70 (ADP-bound)): 10 µM
Kd (HSP70 (ATP-bound)): 1250 µM
Binder: NRLLLTG [NRLLLTG peptide]
